Data as given in IntAct's records for PubMed 36402845.

B1: Exostosin-2 (Homo sapiens), Q93063 (parent)
chain: MCASVKYNIRGPALIPRMKTKHRIYYITLFSIVLLGLIATGMFQFWPHSIESSNDWNVEKRSIRDVPVVRLPADSPIPERGDLSCRMHTCFDVYRCGFNPKNKIKVYIYALKKYVDDFGVSVSNTISREYNELLMAISDSDYYTDDINRACLFVPSIDVLNQNTLRIKETAQAMAQLSRWDRGTNHLLFNMLPGGPPDYNTALDVPRDRALLAGGGFSTWTYRQGYDVSIPVYSPLSAEVDLPEKGPGPRQYFLLSSQVGLHPEYREDLEALQVKHGESVLVLDKCTNLSEGVLSVRKRCHKHQVFDYPQVLQEATFCVVLRGARLGQAVLSDVLQAGCVPVVIADSYILPFSEVLDWKRASVVVPEEKMSDVYSILQSIPQRQIEEMQRQARWFWEAYFQSIKAIALATLQIINDRIYPYAAISYEEWNDPPAVKWGSVSNPLFLPLIPPQSQGFTAIVLTYDRVESLFRVITEVSKVPSLSKLLVVWNNQNKNPPEDSLWPKIRVPLKVVRTAENKLSNRFFPYDEIETEAVLAIDDDIIMLTSDELQFGYEVWREFPDRLVGYPGRLHLWDHEMNKWKYESEWTNEVSMVLTGAAFYHKYFNYLYTYKMPGDIKNWVDAHMNCEDIAMNFLVANVTGKAVIKVTPRKKFKCPECTAIDGLSLDQTHMVERSECINKFASVFGTMPLKVVEHRADPVLYKDDFPEKLKSFPNIGSL
partner: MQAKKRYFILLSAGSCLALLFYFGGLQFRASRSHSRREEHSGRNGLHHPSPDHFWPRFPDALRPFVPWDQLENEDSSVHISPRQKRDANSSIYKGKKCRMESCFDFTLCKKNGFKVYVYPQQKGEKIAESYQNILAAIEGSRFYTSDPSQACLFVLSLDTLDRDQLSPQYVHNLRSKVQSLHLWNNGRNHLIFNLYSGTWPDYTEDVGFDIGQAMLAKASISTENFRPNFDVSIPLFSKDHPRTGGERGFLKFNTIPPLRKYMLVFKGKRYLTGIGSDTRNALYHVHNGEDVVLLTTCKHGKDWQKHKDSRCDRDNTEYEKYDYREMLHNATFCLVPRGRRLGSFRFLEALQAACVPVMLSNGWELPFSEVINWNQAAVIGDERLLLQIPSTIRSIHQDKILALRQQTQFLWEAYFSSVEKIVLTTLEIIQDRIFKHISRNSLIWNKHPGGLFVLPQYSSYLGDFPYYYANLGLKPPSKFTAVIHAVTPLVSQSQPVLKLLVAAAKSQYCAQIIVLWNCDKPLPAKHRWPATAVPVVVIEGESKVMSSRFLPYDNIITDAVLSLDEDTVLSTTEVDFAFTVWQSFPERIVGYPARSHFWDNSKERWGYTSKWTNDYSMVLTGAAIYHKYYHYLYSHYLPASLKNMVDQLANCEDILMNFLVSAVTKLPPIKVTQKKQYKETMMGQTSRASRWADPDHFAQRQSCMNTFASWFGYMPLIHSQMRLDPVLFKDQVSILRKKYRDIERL
B2: Exostosin-1 (Homo sapiens), Q16394 (parent)
chain: B1 partner
partner: B1 chain

Variants of: B1
Details: with ext1_human EXT1, Q16394

effect of a mutation on the interaction | Variant
with no effect | D538N;D540N
with no effect | R266A

Variants of: B2
Details: with ext2_human EXT2, Q93063

effect of a mutation on the interaction | Variant
with no effect | R346A
decreasing interaction strength | D565N;D567N
with no effect | R280A
with no effect | D162N;D164N
